In paper PMC4988494 (Nature, 2015):

Key:
[1] = biological target: Aspergillus niger Fdc1 (Aspergillus niger) (UniProt A2QHE5); test: native MS
[2] = biological target: A. niger Fdc^UbiX (A. niger Fdc1) (Aspergillus niger, UniProt A2QHE5); test: UV-Vis and activity, reversible inhibition; format: biochemical; details: prFMN-loaded enzyme

Molecule	stoichiometry N [1]	UV-Vis and activity, reversible inhibition [2]
Aspergillus niger Fdc1 (from UniProt A2QHE5 1-500) (enzyme)	2	
O=CCc1ccccc1 [phenylacetaldehyde]		incubation with phenylpyruvate or phenylacetaldehyde leads to reversible enzyme inhibition
